The values below come from patent publication US9701739B2, “Monoclonal antibody having immunosuppressive activity or antigen binding fragment thereof” (Josai University Corporation, priority 2010, dated 2017).

Assay [1] concerns histone H1, H2A, H2B, H3 or H4. Put plainly: ELISA determination of the affinity for histone H1 and core histone. Type of assay: binding. Particulars: 5 μg/mL antibody, FIGS. 2 and 3. How it is done:
For an antigen, histone H1, which is an antigen of Reference Example 1 (16G9 mAb), and core histone H2A, H2B, H3 and H4, which are histone H1 antigen analogs, were selected.
The Affinities between histone H1 or core histone and SSVmAb were determined by ELISA.
A 96 well microplate was coated with histone H1, H2A, H2B, H3 or H4. Each histone used was dissolved in 100 mM sodium carbonate buffer (pH 9.3). The plate was washed with PBS-tween 20 (0.05%), and blocked with 3% skim milk and 1% BSA for 1 hour. To each well, 5 μg/mL SSVmAb was added, and incubated for 1 hour. Bound SSVmAb was detected using peroxidase (HRP) conjugated anti mouse IgG1Ab (SIGMA), and incubated for 1 hour. Bound SSVmAb was detected using the ABTS [2,2′-azino-bis(3-ethylbenzothiazoline-sulfonic acid)] substrate solution, and absorbance at 405 nm was measured using Multiskan Ascent (Thermo Fisher Scientific Inc., Waltham, Mass.).

Assay [2] concerns Spleen lymphocytes from a naive DA rat (responsive cells) with mitomycin-C treated LEW rat spleen lymphocytes. Put plainly: Mixed lymphocyte reaction (MLR) test, BrdU incorporation. Type of assay: cell-based. How it is done:
Spleen lymphocytes from a naive DA rat (responsive cells) and spleen lymphocytes from a LEW rat treated with mitomycin-C (Kyowa Hakko Kogyo Co., Ltd.) were used. The responsive cells were adjusted to 5×10^5 cells/mL with 10% FCS—RPMI culture medium, and the stimulated cells were adjusted to 8×10^6 cells/mL with 10% FCS—RPMI culture medium. After plating the responsive cell suspension and the stimulated cell suspension in an amount of 100 μL to a 96 well round-bottom plate (Nunc Brand Products) respectively, the monoclonal antibody 16G9 mAb of Reference Example 1 (0.1, 2, 4, or 6 μg/mL/well) or the monoclonal antibody SSVmAb of Example 1 (4 μg/mL/well) was added at the start of mixed culture, and cultured for 3.5 days or longer under the conditions of 37° C., 5% CO2/95% air. In addition, an immunosuppressive agent tacrolimus (FK506: Fujisawa Pharmaceutical Co., Ltd., 1 nM/well) was added as a positive control. Further, 10 μL bromo deoxyuridine (BrdU) was added 15 hours before the end of culture. Then the proliferation potential of the cells treated with the immunosuppressive agent was measured using BrdU labeling & detection kit III (Roche Diagnostics K.K.) using the amount of BrdU incorporated into cellular DNA as an indicator. The proliferation potential was used as an indicator for a level of immunosuppression.

For another assay, the system named is CD3 positive T cells. The experiment in a line: Reactivity of the monoclonal antibody with T cells by flow cytometry (FACS). Type of assay: cell-based, C57BL/6 mouse. The following applies: unstimulated T cells, 10 μl of 100 μg/ml primary antibody, student t-test, FIG. 5. How it is done:
Using the following approach, spleen was removed from a C57BL/6 mouse (5 weeks old, female, CHARLES RIVER LABORATORIES JAPAN, INC.) to prepare whole splenic cells.
First, in a 5 ml culture dish (BD Bioscience FALCON 351007) into which 5 ml RPMI 1640 culture medium (Sigma-Aldrich, R-8758) was transferred, spleen was disentangled well with scissors for dissection and forceps to suspend the splenic cells, which were then transferred to a 15 ml centrifuge tube (BD Bioscience FALCON 352096). Then, the 5 ml dish was washed several times with phosphate-buffered saline (PBS, Invitrogen, 20012-027), and these were also added to the foregoing cell suspension and allowed to stand, and then the supernatant was collected in another 15 ml centrifuge tube. In addition, 5 ml RPMI 1640 culture medium was also added to the residual insoluble spleen tissue again and allowed to stand, and then only the supernatant was collected, which was combined with the above-mentioned cell suspension to perform centrifugation at 1,500 rpm for 5 min. To the collected cells, added was 2 ml lysis buffer (150 mM NH4Cl/15 mM NaHCO3/0.1 mM EDTA-Na2, pH 7.3) and hemolyzed by tapping, and then 10 ml PBS was added. After washed 3 times by centrifugation at 1,500 rpm for 5 min, whole splenic cells were obtained. […]
The reactivity of the above unstimulated with 16G9 mAb or SSV mAb was analyzed by flow cytometry (FACS). […]

Assay [3] concerns T cells from a Balb/c mouse (mitochondria ATP synthase knocked down or not). The experiment in a line: MLR test with T cells with or without mitochondria ATP synthase knock-down by siRNA. Type of assay: cell-based. Here is the method: First, T cells from a Balb/c mouse having mitochondria ATP synthase knocked down were obtained using Accell siRNA kit from Thermo Fisher Scientific Inc.
Next, according to the method in Test Example 2, MLR tests were performed using Example 1 (SSV mAb) as a test substance using the T cells obtained.
In the test, Isotype IgG1 (eBioscience) was used as a control reagent. In addition, a similar test was performed using T cells from a mouse not having the ATP synthase knocked down as a control test.

B1: SSVmAb: IgG1 monoclonal antibody produced by Mouse-Mouse hybridoma SSV-C 93-3 (NITE BP-972), raised against … peptide-KLH conjugate (antibody, V domains shown)
VH: EIQLQQSGAELVKPGASVKISCKASGYSFTGYNMNWVKQSHGKSLEWIGNINPYYGSTSYNQKFKGKATLTVDKSSSTAYMQLNSLTSEDSAVYYCARSPYYSNYWRYFDYWGQGTTLTVSS
VL: QIVLSQSPAILSASPGEKVTMTCRASSSVSYMHWYQQKPGSSPKPWIYATSNLASGVPARFSGSGSGTSYSLTISRVEAEDAATYYCQQWSSNPWTFGGGTKLEIK
notes: IgG1 monoclonal antibody produced by Mouse-Mouse hybridoma SSV-C 93-3 (NITE BP-972), raised against … peptide-KLH conjugate
Regarding B1, the “affinity for histone H2A, H2B, H3 or H4 compared with affinity for histone H1 (absorbance at 405 nm)” value in assay [1] is given as “higher than the affinity for histone H1”. Besides, the “absorbance which indicates the amount of incorporated BrdU” value in assay [2] (4 μg/mL/well, mean±S.E., cultured 3.5 days or longer, FIG. 4) is 0.552±0.114. Moreover, the “absorbance (incorporated BrdU) compared with reference antibody and tacrolimus” value in assay [2] (SSVmAb 4 μg/mL/well, 16G9 mAb 0.1, 2, 4 or 6 μg/mL/well, FK506 1 nM/well) was “lower than that of Reference Example 1 (16G9 mAb) and tacrolimus (FK506)”. In addition, the “mean absorbance of Example 1 relative to that of Reference Example 1” value in assay [2] (same amount added (4 μg/mL/well)) was “about 41%”. For the same molecule, the “reactivity with CD3 positive T cells” value in the assay on CD3 positive T cells was “comparative reactivity”. Moreover, the “cell growth inhibition compared with Isotype IgG1” value in assay [3] (ATP synthase knocked down, FIG. 6B) is recorded as “no significant difference”; in assay [3] (ATP synthase not knocked down, FIG. 6A), “significantly inhibited cell growth”.
